As usually defined, the kcat is the maximal rate divided by the concentration of active sites.

Substrate in data set [1]: CC(=O)C(=O)O
Put plainly: purified protein, by the assay type. Particulars: pH 6.5.

Substrate in data set [2]: CC(=O)C(=O)O
Put plainly: purified protein, by the assay type. Particulars: pH 6.5. In kind it is biochemical.

Positions count from the first letter of the chain named. Names may count otherwise.

B1: WT GsLDH (Geobacillus stearothermophilus) (protein)
chain: MKNNGGARVVVIGAGFVGASYVFALMNQGIADEIVLIDANESKAIGDAMDFNHGKVFAPKPVDIWHGDYDDCRDADLVVICAGANQKPGETRLDLVDKNIAIFRSIVESVMASGFQGLFLVATNPVDILTYATWKFSGLPHERVIGSGTILDTARFRFLLGEYFSVAPQNVHAYIIGEHGDTELPVWSQAYIGVMPIRKLVESKGEEAQKDLERIFVNVRDAAYQIIEKKGATYYGIAMGLARVTRAILHNENAILTVSAYLDGLYGERDVYIGVPAVINRNGIREVIEIELNDDEKNRFHHSAATLKSVLARAFTR
As for B1, the K0.5 in data set [1] amounted to 2.8 ± 0.4 mM.

B2: Gln189Leu (Geobacillus stearothermophilus; Q189L) (protein)
chain: B1 chain with Q189L
With B2, in data set [2], the K0.5 was determined as 2.3 ± 0.2 mM and the kcat stood at 73 ± 12 s⁻¹.

B3: Triple mutant (Geobacillus stearothermophilus; N293S/Q189L/R104C) (protein)
chain: B1 chain with R104C, Q189L, N293S
Regarding B3, in data set [2], the K0.5 stood at 0.41 ± 0.09 mM and the kcat was found to be 57 ± 8 s⁻¹.

Values taken from PMC12197871.
